Numbered stars: 1 amine (or outer) side, 2 acyl side, 3 side chain; on linkers, the order of the positions; unused ones are H or OH. Bridge positions count the residues as written; N and C are the ends. Side chains are listed from the residue outwards. Ends that are not written are not given here. * marks the point of attachment. C20 diacid = O=C(O)CCCCCCCCCCCCCCCCCCC(=O)*; γGlu = O=C(O)[C@H](CCC(=O)[*:2])N[*:1]; AEEA = NCCOCCOCC(=O)O
T1: human amylin receptor (human, UniProt P30988 25-474; O60896 24-148, limits assumed)
T1 construct: whole, on cells; Calcitonin receptor plus RAMP-3 gives the amylin 3(a) receptor; membranes of Amylin 3(a)/CRE-luc cells were used; also called hAmylin-R; hAmylinR
T1 sequence (looked up) 1: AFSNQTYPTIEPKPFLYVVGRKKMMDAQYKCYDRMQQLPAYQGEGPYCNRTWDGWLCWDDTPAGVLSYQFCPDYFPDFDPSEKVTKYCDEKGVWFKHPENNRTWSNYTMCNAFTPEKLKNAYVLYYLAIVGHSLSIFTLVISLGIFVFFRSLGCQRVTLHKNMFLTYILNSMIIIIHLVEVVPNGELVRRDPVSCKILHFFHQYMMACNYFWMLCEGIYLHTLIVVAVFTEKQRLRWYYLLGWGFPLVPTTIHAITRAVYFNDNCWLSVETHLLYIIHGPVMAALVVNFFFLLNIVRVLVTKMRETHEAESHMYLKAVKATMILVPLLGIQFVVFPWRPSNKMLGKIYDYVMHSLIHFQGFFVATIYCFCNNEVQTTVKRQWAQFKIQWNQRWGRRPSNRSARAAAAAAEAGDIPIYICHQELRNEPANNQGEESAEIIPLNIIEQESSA
T1 sequence (looked up) 2: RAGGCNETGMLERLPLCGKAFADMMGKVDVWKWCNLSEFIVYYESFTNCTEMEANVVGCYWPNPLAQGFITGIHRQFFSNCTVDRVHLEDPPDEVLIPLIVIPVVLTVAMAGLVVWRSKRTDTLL

B1: N^ε1-[2-[2-[2-[[(4S)-4-carboxy-4-(19-carboxynonadecanoylamino)butanoyl]amino]ethoxy]ethoxy]acetyl]-[Gly14,Arg17,Pro21,Pro27,Pro31]-h-amylin (peptide)
peptide: K([AEEA-γGlu-C20 diacid])CNTATCATQRLAGFLRHSSPNFGAIPSSTPVGSNTY-NH2
modifications: disulfide 2-7; N-terminus assumed
SMILES: CC[C@H](C)[C@H](NC(=O)[C@H](C)NC(=O)CNC(=O)[C@H](Cc1ccccc1)NC(=O)[C@H](CC(N)=O)NC(=O)[C@@H]1CCCN1C(=O)[C@H](CO)NC(=O)[C@H](CO)NC(=O)[C@H](Cc1c[nH]cn1)NC(=O)[C@H](CCCNC(=N)N)NC(=O)[C@H](CC(C)C)NC(=O)[C@H](Cc1ccccc1)NC(=O)CNC(=O)[C@H](C)NC(=O)[C@H](CC(C)C)NC(=O)[C@H](CCCNC(=N)N)NC(=O)[C@H](CCC(N)=O)NC(=O)[C@@H](NC(=O)[C@H](C)NC(=O)[C@@H]1CSSC[C@H](NC(=O)[C@@H](N)CCCCNC(=O)COCCOCCNC(=O)CC[C@H](NC(=O)CCCCCCCCCCCCCCCCCCC(=O)O)C(=O)O)C(=O)N[C@@H](CC(N)=O)C(=O)N[C@@H]([C@@H](C)O)C(=O)N[C@@H](C)C(=O)N[C@@H]([C@@H](C)O)C(=O)N1)[C@@H](C)O)C(=O)N1CCC[C@H]1C(=O)N[C@@H](CO)C(=O)N[C@@H](CO)C(=O)N[C@H](C(=O)N1CCC[C@H]1C(=O)N[C@H](C(=O)NCC(=O)N[C@@H](CO)C(=O)N[C@@H](CC(N)=O)C(=O)N[C@H](C(=O)N[C@@H](Cc1ccc(O)cc1)C(N)=O)[C@@H](C)O)C(C)C)[C@@H](C)O
notes: also called 14G, 17R, 21P, 27P, 31P
B2: N^ε1-[2-[2-[2-[[(4S)-4-carboxy-4-(19-carboxynonadecanoylamino)butanoyl]amino]ethoxy]ethoxy]acetyl]-[His14,Arg17,Pro21,Pro27,Pro34]-h-amylin (peptide)
peptide: K([AEEA-γGlu-C20 diacid])CNTATCATQRLAHFLRHSSPNFGAIPSSTNVGPNTY-NH2
modifications: disulfide 2-7; N-terminus assumed
SMILES: CC[C@H](C)[C@H](NC(=O)[C@H](C)NC(=O)CNC(=O)[C@H](Cc1ccccc1)NC(=O)[C@H](CC(N)=O)NC(=O)[C@@H]1CCCN1C(=O)[C@H](CO)NC(=O)[C@H](CO)NC(=O)[C@H](Cc1c[nH]cn1)NC(=O)[C@H](CCCNC(=N)N)NC(=O)[C@H](CC(C)C)NC(=O)[C@H](Cc1ccccc1)NC(=O)[C@H](Cc1c[nH]cn1)NC(=O)[C@H](C)NC(=O)[C@H](CC(C)C)NC(=O)[C@H](CCCNC(=N)N)NC(=O)[C@H](CCC(N)=O)NC(=O)[C@@H](NC(=O)[C@H](C)NC(=O)[C@@H]1CSSC[C@H](NC(=O)[C@@H](N)CCCCNC(=O)COCCOCCNC(=O)CC[C@H](NC(=O)CCCCCCCCCCCCCCCCCCC(=O)O)C(=O)O)C(=O)N[C@@H](CC(N)=O)C(=O)N[C@@H]([C@@H](C)O)C(=O)N[C@@H](C)C(=O)N[C@@H]([C@@H](C)O)C(=O)N1)[C@@H](C)O)C(=O)N1CCC[C@H]1C(=O)N[C@@H](CO)C(=O)N[C@@H](CO)C(=O)N[C@H](C(=O)N[C@@H](CC(N)=O)C(=O)N[C@H](C(=O)NCC(=O)N1CCC[C@H]1C(=O)N[C@@H](CC(N)=O)C(=O)N[C@H](C(=O)N[C@@H](Cc1ccc(O)cc1)C(N)=O)[C@@H](C)O)C(C)C)[C@@H](C)O
notes: also called 14H, 17R, 21P, 27P, 34P
B3: N^ε1-[2-[2-[2-[[(4S)-4-carboxy-4-(19-carboxynonadecanoylamino)butanoyl]amino]ethoxy]ethoxy]acetyl]-[His14,Arg17,Pro21,Pro27,Pro31]-h-amylin (peptide)
peptide: K([AEEA-γGlu-C20 diacid])CNTATCATQRLAHFLRHSSPNFGAIPSSTPVGSNTY-NH2
modifications: disulfide 2-7; N-terminus assumed
SMILES: CC[C@H](C)[C@H](NC(=O)[C@H](C)NC(=O)CNC(=O)[C@H](Cc1ccccc1)NC(=O)[C@H](CC(N)=O)NC(=O)[C@@H]1CCCN1C(=O)[C@H](CO)NC(=O)[C@H](CO)NC(=O)[C@H](Cc1c[nH]cn1)NC(=O)[C@H](CCCNC(=N)N)NC(=O)[C@H](CC(C)C)NC(=O)[C@H](Cc1ccccc1)NC(=O)[C@H](Cc1c[nH]cn1)NC(=O)[C@H](C)NC(=O)[C@H](CC(C)C)NC(=O)[C@H](CCCNC(=N)N)NC(=O)[C@H](CCC(N)=O)NC(=O)[C@@H](NC(=O)[C@H](C)NC(=O)[C@@H]1CSSC[C@H](NC(=O)[C@@H](N)CCCCNC(=O)COCCOCCNC(=O)CC[C@H](NC(=O)CCCCCCCCCCCCCCCCCCC(=O)O)C(=O)O)C(=O)N[C@@H](CC(N)=O)C(=O)N[C@@H]([C@@H](C)O)C(=O)N[C@@H](C)C(=O)N[C@@H]([C@@H](C)O)C(=O)N1)[C@@H](C)O)C(=O)N1CCC[C@H]1C(=O)N[C@@H](CO)C(=O)N[C@@H](CO)C(=O)N[C@H](C(=O)N1CCC[C@H]1C(=O)N[C@H](C(=O)NCC(=O)N[C@@H](CO)C(=O)N[C@@H](CC(N)=O)C(=O)N[C@H](C(=O)N[C@@H](Cc1ccc(O)cc1)C(N)=O)[C@@H](C)O)C(C)C)[C@@H](C)O
notes: also called 14H, 17R, 21P, 27P, 31P
B4: N^ε1-[2-[2-[2-[[(4S)-4-carboxy-4-(19-carboxynonadecanoylamino)butanoyl]amino]ethoxy]ethoxy]acetyl]-[His14,Arg17,Pro21,Pro27,Arg34]-h-amylin (peptide)
peptide: K([AEEA-γGlu-C20 diacid])CNTATCATQRLAHFLRHSSPNFGAIPSSTNVGRNTY-NH2
modifications: disulfide 2-7; N-terminus assumed
SMILES: CC[C@H](C)[C@H](NC(=O)[C@H](C)NC(=O)CNC(=O)[C@H](Cc1ccccc1)NC(=O)[C@H](CC(N)=O)NC(=O)[C@@H]1CCCN1C(=O)[C@H](CO)NC(=O)[C@H](CO)NC(=O)[C@H](Cc1c[nH]cn1)NC(=O)[C@H](CCCNC(=N)N)NC(=O)[C@H](CC(C)C)NC(=O)[C@H](Cc1ccccc1)NC(=O)[C@H](Cc1c[nH]cn1)NC(=O)[C@H](C)NC(=O)[C@H](CC(C)C)NC(=O)[C@H](CCCNC(=N)N)NC(=O)[C@H](CCC(N)=O)NC(=O)[C@@H](NC(=O)[C@H](C)NC(=O)[C@@H]1CSSC[C@H](NC(=O)[C@@H](N)CCCCNC(=O)COCCOCCNC(=O)CC[C@H](NC(=O)CCCCCCCCCCCCCCCCCCC(=O)O)C(=O)O)C(=O)N[C@@H](CC(N)=O)C(=O)N[C@@H]([C@@H](C)O)C(=O)N[C@@H](C)C(=O)N[C@@H]([C@@H](C)O)C(=O)N1)[C@@H](C)O)C(=O)N1CCC[C@H]1C(=O)N[C@@H](CO)C(=O)N[C@@H](CO)C(=O)N[C@H](C(=O)N[C@@H](CC(N)=O)C(=O)N[C@H](C(=O)NCC(=O)N[C@@H](CCCNC(=N)N)C(=O)N[C@@H](CC(N)=O)C(=O)N[C@H](C(=O)N[C@@H](Cc1ccc(O)cc1)C(N)=O)[C@@H](C)O)C(C)C)[C@@H](C)O
notes: also called 14H, 17R, 21P, 27P, 34R
B5: N^ε1-[2-[2-[2-[[(4S)-4-carboxy-4-(19-carboxynonadecanoylamino)butanoyl]amino]ethoxy]ethoxy]acetyl]-[His14,Arg17,Pro21,Pro27,His34]-h-amylin (peptide)
peptide: K([AEEA-γGlu-C20 diacid])CNTATCATQRLAHFLRHSSPNFGAIPSSTNVGHNTY-NH2
modifications: disulfide 2-7; N-terminus assumed
SMILES: CC[C@H](C)[C@H](NC(=O)[C@H](C)NC(=O)CNC(=O)[C@H](Cc1ccccc1)NC(=O)[C@H](CC(N)=O)NC(=O)[C@@H]1CCCN1C(=O)[C@H](CO)NC(=O)[C@H](CO)NC(=O)[C@H](Cc1c[nH]cn1)NC(=O)[C@H](CCCNC(=N)N)NC(=O)[C@H](CC(C)C)NC(=O)[C@H](Cc1ccccc1)NC(=O)[C@H](Cc1c[nH]cn1)NC(=O)[C@H](C)NC(=O)[C@H](CC(C)C)NC(=O)[C@H](CCCNC(=N)N)NC(=O)[C@H](CCC(N)=O)NC(=O)[C@@H](NC(=O)[C@H](C)NC(=O)[C@@H]1CSSC[C@H](NC(=O)[C@@H](N)CCCCNC(=O)COCCOCCNC(=O)CC[C@H](NC(=O)CCCCCCCCCCCCCCCCCCC(=O)O)C(=O)O)C(=O)N[C@@H](CC(N)=O)C(=O)N[C@@H]([C@@H](C)O)C(=O)N[C@@H](C)C(=O)N[C@@H]([C@@H](C)O)C(=O)N1)[C@@H](C)O)C(=O)N1CCC[C@H]1C(=O)N[C@@H](CO)C(=O)N[C@@H](CO)C(=O)N[C@H](C(=O)N[C@@H](CC(N)=O)C(=O)N[C@H](C(=O)NCC(=O)N[C@@H](Cc1c[nH]cn1)C(=O)N[C@@H](CC(N)=O)C(=O)N[C@H](C(=O)N[C@@H](Cc1ccc(O)cc1)C(N)=O)[C@@H](C)O)C(C)C)[C@@H](C)O
notes: also called 14H, 17R, 21P, 27P, 34H

Target: T1, human amylin receptor
Experiment: SPA competition binding, displacement of 125I-rat amylin from membranes with human amylin 3(a) receptor (Assay V)
Procedure, shortened: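 SPA beads + BHK amylin 3(a)/CRE-luc membranes, 35 ng/μL final; buffer 50 mM Hepes pH 7.4, 1 mM CaCl2, 5 mM MgCl₂, 0.1% OA, 0.02% Tween20. 120 min, 25° C, shaken; scintillation count. IC₅₀ by one-site binding competition fit, taken as receptor affinity.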

Binder | IC50 [nM]
B1 | 0.048
B2 | 0.088
B3 | 0.122
B4 | 0.743
B5 | 0.29

Source: US20140087995A1 (published 2014)
